According to article PMC6220978, “Induced conformational changes activate the peptidoglycan synthase PBP1B” (Molecular Microbiology, 2018):
Changes are numbered by the printed parent chain.

Tests used:
Experiment in all cases: SPR; PBP1B versions immobilised to the chip surface; LpoB injected from 19.5 nM to 10 μM; apparent KD by non-linear regression, at least three independent experiments
Settings in all cases: both partners purified
[1] = biological target: T1, PBP1B R109G (E. coli, UniProt P02919 46-844, R109G)
T1 construct: PBP1B, E. coli, residues 46-844, made by mutagenesis of pDML924; source: E. coli BL21(DE3), purified (membrane extract, HisTrap, thrombin, HiTrap SP ion exchange)
T1 sequence (looked up): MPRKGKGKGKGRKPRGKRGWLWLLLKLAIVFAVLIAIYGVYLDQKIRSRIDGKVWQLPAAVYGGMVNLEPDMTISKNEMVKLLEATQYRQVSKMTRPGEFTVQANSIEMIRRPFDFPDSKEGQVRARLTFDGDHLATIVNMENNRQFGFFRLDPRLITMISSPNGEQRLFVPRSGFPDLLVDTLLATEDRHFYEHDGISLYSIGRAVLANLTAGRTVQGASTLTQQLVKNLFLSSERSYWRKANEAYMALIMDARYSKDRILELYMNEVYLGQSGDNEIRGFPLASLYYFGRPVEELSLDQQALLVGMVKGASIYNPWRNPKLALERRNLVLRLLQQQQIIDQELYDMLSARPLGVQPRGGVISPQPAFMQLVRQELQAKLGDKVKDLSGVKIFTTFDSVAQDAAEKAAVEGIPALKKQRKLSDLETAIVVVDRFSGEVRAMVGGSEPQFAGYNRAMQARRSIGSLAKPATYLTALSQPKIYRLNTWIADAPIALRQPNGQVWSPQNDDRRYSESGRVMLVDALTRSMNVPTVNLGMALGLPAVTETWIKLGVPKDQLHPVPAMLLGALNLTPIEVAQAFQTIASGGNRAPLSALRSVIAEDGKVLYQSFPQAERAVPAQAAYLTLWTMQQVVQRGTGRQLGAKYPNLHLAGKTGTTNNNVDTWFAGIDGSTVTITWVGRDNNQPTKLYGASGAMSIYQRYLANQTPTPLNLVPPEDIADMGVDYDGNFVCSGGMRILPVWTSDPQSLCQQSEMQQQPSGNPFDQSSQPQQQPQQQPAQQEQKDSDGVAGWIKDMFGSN

[2] = biological target: T2, PBP1B (wild type, PBP1B^46-844) (E. coli, UniProt P02919 46-844)
T2 construct: PBP1B, E. coli, residues 46-844, encoded on pDML924; Immobilised on the SPR chip as in Egan et al. 2014 / Gray et al. 2015; also called WT PBP1B; WT; source: E. coli BL21(DE3), purified (membrane extract, HisTrap, thrombin, HiTrap SP ion exchange)
T2 sequence (looked up): T1 sequence (looked up) with G64R

[3] = biological target: T3, PBP1B N112G (E. coli, UniProt P02919 46-844, N112G)
T3 construct: PBP1B, E. coli, residues 46-844, made by mutagenesis of pDML924; source: E. coli BL21(DE3), purified (membrane extract, HisTrap, thrombin, HiTrap SP ion exchange)
T3 sequence (looked up): T1 sequence (looked up) with G64R, N67G

B1: LpoB (natural protein, E. coli)
chain: VGQREPAPVEEVKPAPEQPAEPQQPVPTVPSVPTIPQQPGPIEHEDQTAPPAPHIRHYDWNGAMQPMVSKMLGADGVTAGSVLLVDSVNNRTNGSLNAAEATETLRNALANNGKFTLVSAQQLSMAKQQLGLSPQDSLGTRSKAIGIARNVGAHYVLYSSASGNVNAPTLQMQLMLVQTGEIIWSGKGAVSQQ
notes: LpoB, E. coli; also called lipoprotein LpoB; source: E. coli BL21(DE3), purified (HisTrap, Superdex 200), as in Egan et al. 2014
For B1, the Kd [1] was 3090 nM, the Kd [2] was 491 nM and the Kd [3] was 356 nM.
